In the RNAGym collection of RNA variant scans (doi:10.1073/pnas.2313332121):

B1: TPR t1 (parent)
chain: GACCAAUCUGCCCUCAGAGCUCGAGAACAUCUUCGGAUGCAGAGGAGGCAGGCUUCGGUGGCGCGAUAGCGCCAACGUCCUCAACCUCCAAUGCAUCCCACCACAUGAUGAUGCCUGAAGAGCCUUGGUUUUUUG

Variants of: B1
Assay: polymerase ribozyme fitness, log enrichment relative to wild type (log ratio); higher = more active; in vitro selection for triplet polymerase activity
Procedure, shortened: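 To select mutant libraries of each subunit of a heterodimeric triplet polymerase ribozyme, built by PCR and transcribed, each was annealed with a biotinylated primer, partner subunit and triplets, then incubated frozen at −7 °C. Extended constructs were gel-excised, captured on streptavidin beads and amplified by RT-PCR, in one round carried out in triplicate. Illumina sequencing of input and output libraries kept genotypes with ≥10 input reads and ≥1 read per output. Fitness is the base-2 logarithm of genotype enrichment relative to wild-type enrichment, from inverse-variance-weighted replicate averages.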

Variant	polymerase ribozyme fitness (log ratio)
C3A A37U C82U U112C	-0.239
C3A A43G	-3.31
C3G U59G C88U C115A	-2.65
C3G C4G G25U C28U C34U G71U G107U U112G C114A A121G	-6.59
C3G C4G C53U G60U G93A	-3.06
C3U A50U G52U	-3.28
A2U C70U	-2.28
C3G U78A	-2.46
C3G A29U G71A A119G	-2.72
C3U A43G U55G A111G U126A	-4.64
C3A C73G A119U U129C	-1.93
A2U U106A U129C	-1.74
C3G A37U C49U A100U G113A U129A	-4.75
C3U A37U A84C	-0.656
A2U G110C U131A	-5.15
C3A A6C U59A C62A U78G C97U G117C G135C	-6.34
C3A G51C G69U	-2.31
A2U C49A G71A C82A G120U	-3.9
C3G C49U C72U U131A	-4.85
C3A U38G A103C A118G C123G	-6.41
C3G C62U G93U C98U G128C	-2.79
C3A G42U A46U C73A U112A	-2.77
C3A C73U C79G A119G C123A	0.0633
C3A U21C U96C C124G	0.974

Variant	polymerase ribozyme fitness (log ratio)
C3G G69U A90U G93A U112C	-1.26
C3A A16C U78G C79U	-4.42
A2U C73A U78A U87C C124A U126A	-1.46
C3G G47U C64A A90C C104U G113A	-6.9
C3G G120C	-0.918
C3G G110U	-2.82
C3U A95G	0.0555
C3G G113A	-3.52
C3G C70U	-2.07
C3U A27U	-4.17
C3U A27G	-2.38
C3G A16U C40U C73A	-4.45
C3G C22U G61C U109A	-6.73
C3U A26U G48A U130G	-5.25
C3G G42U C99U C115G A121G	-5.96
C3U A74U C101U G113A C123G	-1.18
C3G A6U	-4.02
C3A C34U C79U C114A C124G G128U	-4.76
C3G C13A A95C	-4.35
A2U U116C	-1.84
A2U U116A	-5.18
C3A A5C C13G G36A C79U A84U	-1.28
C3G C97G	-5.54
A2U C123A	-1.63

Variant	polymerase ribozyme fitness (log ratio)
C3A C15A C53U G63C	-3.45
C3A G128U	-1.03
A2U G52A C56A C82A A91G A121C	-2.84
C3A U9G C40U G57U A105G	-4.58
C3A G10A G44U	-3.54
C3A G45U G61A C88U A90C G113A	-3.92
C3A U55C G61A C86U	-2
C3A G61U	-1.07
C3G C62U G120C	-0.751
C3A A5U C11G G36U G45U	-1.02
C3G C8G A43U C72U A90C	-2.6
A2U G10A	-2.85
C3G G63C	-2.64
C3G G63U	-2.85
C3A U33A C86A U112G	-6.24
C3G C13A A18G G25U G63A A111C A118G	-6.44
A2U G60U	-1.99
C3G G61C	-3.19
C3G G61U	-1.85
C3A C72A C88G U92G G127U	-2.7
C3G U7G G17C	-3.73
A2U C73A U130A U133G	-2.47
C3U A74U U106G G110A A119G	-4.14
C3A C34A	-3.91

Variant	polymerase ribozyme fitness (log ratio)
C3U A84G G120A	-0.608
C3G G61U C94A A95C C124A U132C U133C	-3.25
C3A G93A A95G	-2.11
C3A C22G A37G G71A A111G	-6.05
C3G G61A A90G C99U	-3.39
C3A C102U A121G	-0.526
C3A G52A C70U C104A C124G	-2.12
A2U U87G U96G	-3.12
C3A G10U U129C	-1.94
C3G G44A G47A C86G G120A	-4.34
C3A U87A C94U U106G C115U G120C	-5.04
C3G G48C	-2.83
C3A G17U	-4.27
C3A C89U U96G C124A	0.0977
A2U G10U C15G U106A	-2.38
A2U C15A	-4.12
C3G C11A C115U	-6.42
C3A C53A G57A C70A A95C G117C	-5.27
A2U G10U G42A C88U C89G U92G C115G	-6.18
A2U C12U U78C U87G U112G	-3.07
A2U U112G	-1.44
A2U C76U	-1.64
A2U G52U	-3.41
A2U G36C C53U	-3.54

Variant	polymerase ribozyme fitness (log ratio)
A2U G10U C115U	-3.43
C3A G110C	-5.4
A2U G63A	-2.23
A2U G63C	-3.13
A2U C64U	-2
A2U U9A C11U A18C C20A C31G G77A A83G C97A G113U C124U	-7.17
C3G C53G C86G C94U U106G G120A	-5.63
A2U C56A A83G	-4.24
C3A U7G U32C G93C A111C	-1.66
A2U U54C U112G G113A U133A	-2.96
C3G G10U G39U C72U C85U	-3.78
C3U A29G G48C C73G C79G C101U	-5.51
C3A G10U	-1.63
A2U C20A G69U C70G	-5.15
A2U G135U	-1.94
C3U C8A C20U C53U G58A G77A A90G C101U	-3.06
C3G C8G U32C C115G	-2.01
C3A G44C U112G C124U U125C	-1.64
C3A C20U G65A C101A A105C C114U U131G	-7.29
C3U A66U	-1.8
C3A U133A	-1.44
C3G C88U U106C	-2.72
C3A G57U A75C C85G U112A C123U	-1.77
C3A C8U A46U G63C U130C	-1.24

Variant	polymerase ribozyme fitness (log ratio)
A2U C56A G63A C104A U112A	-5.33
A2U G36C C72G	-4.64
A2U G71C C101U G127U	-2.85
C3U C4G	-2.81
C3G A50U C94G	-4.4
C3A U7A C123U	0.267
C3G C70U C115U G127U	-4.54
C3U C11U G71A A119G	-0.255
C3A U32C G69A G120A	-3.63
C3A C11U G47A G63U G127C	-3.33
A2U C12U C64U	-2.54
A2U C15A C114U	-6.05
C3A A46C C53A C72U	-1.88
C3U A6U G48A C62U C115U	-2.86
C3A C11A A16U C49A G117A	-4.16
C3A C62U	-1.99
C3A C62G	-2.38
A2U C12U	-2.36
C3G A18U A43U C114G	-4.61
A2U U54A	-2.36
C3A U106G G113U	-6.02
C3A G39A C104U C115U	-2.58
C3U A105U	-1.94
C3U A6U	0.0323

Variant	polymerase ribozyme fitness (log ratio)
C3U A16G A90G U112G U116C	0.876
C3G C12A C114A G128C	-3.31
C3G G47U G93A	-4.99
A2U C13U	-1.36
C3G A27G C53U C72G C79A C98G U116C	-6.51
C3G G42A C56G U106C G113U A121U	-4.31
C3G A5G U112C	-0.649
C3A G52U G60U	-1.88
C3A C20U C101A A105C C114U U131G	-2.47
C3A A43G C94G C114U	-3.66
C3A G127U	-0.622
C3A U7G G10A C49G C104U G110C C124U	-4.49
C3U A5G C8G C11G C73U C99A U109A G120A	-5.15
C3G A5C G48U U54C U92G	-4.45
C3G C8G G117A G120A G135U	-1.6
C3U C11U G48A G117C C123G U129C U133C	-2.05
A2U C89A C115A	-3.43
C3U A27C G58C C64A G93U C101A G113A C115G	-7.47
C3A C70U	-1.64
C3A G39A U54C C70U C104U	-2.33
A2U G110C	-6.03
A2U G110A	-3.63
C3G G36A G39C C53U A121C	-2.59
